# Reference: the Human Domainome abundance scans (Beltran et al. 2025)
# ± gives the uncertainty stated by the source.
# B1: Nuclear receptor subfamily 1 group D member 2, residues 103 to 171; numbered along this chain, Q14995 (parent)
# chain: CKVCGDVASGFHYGVHACEGCKGFFRRSIQQNIQYKKCLKNENCSIMRMNRNRCQQCRFKKCLSVGMSR
# Variants of: B1
# Test: abundance fitness (aPCA) (normalised: wild type 0, dead -1); higher = more abundant; growth selection in yeast, the domain comes from the species named
# Conditions: Homo sapiens
row,Variant,abundance fitness
1,CKVCGDVAYGFHYGVHACEGCKGFFRRSIQQNIQYKKCLKNENCSIMRMNRNRCQQCRFKKCLSVGMSR [S9Y],-0.49 ± 0.4
2,CKVCGRVASGFHYGVHACEGCKGFFRRSIQQNIQYKKCLKNENCSIMRMNRNRCQQCRFKKCLSVGMSR [D6R],-0.857 ± 0.26
3,CKVCGTVASGFHYGVHACEGCKGFFRRSIQQNIQYKKCLKNENCSIMRMNRNRCQQCRFKKCLSVGMSR [D6T],-0.47 ± 0.11
4,CKVCGQVASGFHYGVHACEGCKGFFRRSIQQNIQYKKCLKNENCSIMRMNRNRCQQCRFKKCLSVGMSR [D6Q],-0.513 ± 0.2
5,CKVCGYVASGFHYGVHACEGCKGFFRRSIQQNIQYKKCLKNENCSIMRMNRNRCQQCRFKKCLSVGMSR [D6Y],-0.445 ± 0.35
6,CKVCGVVASGFHYGVHACEGCKGFFRRSIQQNIQYKKCLKNENCSIMRMNRNRCQQCRFKKCLSVGMSR [D6V],-0.56 ± 0.34
7,CKVCGLVASGFHYGVHACEGCKGFFRRSIQQNIQYKKCLKNENCSIMRMNRNRCQQCRFKKCLSVGMSR [D6L],-0.572 ± 0.2
8,CKVCGMVASGFHYGVHACEGCKGFFRRSIQQNIQYKKCLKNENCSIMRMNRNRCQQCRFKKCLSVGMSR [D6M],-0.345 ± 0.17
9,CKVCGSVASGFHYGVHACEGCKGFFRRSIQQNIQYKKCLKNENCSIMRMNRNRCQQCRFKKCLSVGMSR [D6S],-0.706 ± 0.45
10,CKVCGDTASGFHYGVHACEGCKGFFRRSIQQNIQYKKCLKNENCSIMRMNRNRCQQCRFKKCLSVGMSR [V7T],-0.126 ± 0.11
11,CKVCGDCASGFHYGVHACEGCKGFFRRSIQQNIQYKKCLKNENCSIMRMNRNRCQQCRFKKCLSVGMSR [V7C],-0.526 ± 0.29
12,CKVCGDDASGFHYGVHACEGCKGFFRRSIQQNIQYKKCLKNENCSIMRMNRNRCQQCRFKKCLSVGMSR [V7D],-0.001 ± 0.15
13,CKVCGDQASGFHYGVHACEGCKGFFRRSIQQNIQYKKCLKNENCSIMRMNRNRCQQCRFKKCLSVGMSR [V7Q],0.118 ± 0.11
14,CKVCGDMASGFHYGVHACEGCKGFFRRSIQQNIQYKKCLKNENCSIMRMNRNRCQQCRFKKCLSVGMSR [V7M],-0.032 ± 0.1
15,CKVCGDAASGFHYGVHACEGCKGFFRRSIQQNIQYKKCLKNENCSIMRMNRNRCQQCRFKKCLSVGMSR [V7A],-0.153 ± 0.1
16,CKVCGDGASGFHYGVHACEGCKGFFRRSIQQNIQYKKCLKNENCSIMRMNRNRCQQCRFKKCLSVGMSR [V7G],-0.469 ± 0.088
17,CKVCGDNASGFHYGVHACEGCKGFFRRSIQQNIQYKKCLKNENCSIMRMNRNRCQQCRFKKCLSVGMSR [V7N],-0.019 ± 0.24
18,CKVCGDFASGFHYGVHACEGCKGFFRRSIQQNIQYKKCLKNENCSIMRMNRNRCQQCRFKKCLSVGMSR [V7F],-0.061 ± 0.17
19,CKVCGDRASGFHYGVHACEGCKGFFRRSIQQNIQYKKCLKNENCSIMRMNRNRCQQCRFKKCLSVGMSR [V7R],0.032 ± 0.061
20,CKVCGDLASGFHYGVHACEGCKGFFRRSIQQNIQYKKCLKNENCSIMRMNRNRCQQCRFKKCLSVGMSR [V7L],-0.119 ± 0.075

row,Variant,abundance fitness
1,CKVCGDPASGFHYGVHACEGCKGFFRRSIQQNIQYKKCLKNENCSIMRMNRNRCQQCRFKKCLSVGMSR [V7P],-0.295 ± 0.12
2,CKVCGDSASGFHYGVHACEGCKGFFRRSIQQNIQYKKCLKNENCSIMRMNRNRCQQCRFKKCLSVGMSR [V7S],-0.083 ± 0.075
3,CKVCGDKASGFHYGVHACEGCKGFFRRSIQQNIQYKKCLKNENCSIMRMNRNRCQQCRFKKCLSVGMSR [V7K],0.167 ± 0.093
4,CKVCGDEASGFHYGVHACEGCKGFFRRSIQQNIQYKKCLKNENCSIMRMNRNRCQQCRFKKCLSVGMSR [V7E],0.057 ± 0.084
5,CKVCGDWASGFHYGVHACEGCKGFFRRSIQQNIQYKKCLKNENCSIMRMNRNRCQQCRFKKCLSVGMSR [V7W],-0.195 ± 0.12
6,CKVCGDVASGFHYMVHACEGCKGFFRRSIQQNIQYKKCLKNENCSIMRMNRNRCQQCRFKKCLSVGMSR [G14M],-0.759 ± 0.2
7,CKVCGDVASGFHYFVHACEGCKGFFRRSIQQNIQYKKCLKNENCSIMRMNRNRCQQCRFKKCLSVGMSR [G14F],-0.558 ± 0.41
8,CKVCGDVASGFHYLVHACEGCKGFFRRSIQQNIQYKKCLKNENCSIMRMNRNRCQQCRFKKCLSVGMSR [G14L],-0.898 ± 0.18
9,CKVCGDVASGFHYPVHACEGCKGFFRRSIQQNIQYKKCLKNENCSIMRMNRNRCQQCRFKKCLSVGMSR [G14P],-0.835 ± 0.24
10,CKVCGDVASGFHYAVHACEGCKGFFRRSIQQNIQYKKCLKNENCSIMRMNRNRCQQCRFKKCLSVGMSR [G14A],-0.871 ± 0.23
11,CKVCGDVASGFHYDVHACEGCKGFFRRSIQQNIQYKKCLKNENCSIMRMNRNRCQQCRFKKCLSVGMSR [G14D],-0.579 ± 0.49
12,CKVCGDVASVFHYGVHACEGCKGFFRRSIQQNIQYKKCLKNENCSIMRMNRNRCQQCRFKKCLSVGMSR [G10V],-0.119 ± 0.38
13,CKVCGDVASDFHYGVHACEGCKGFFRRSIQQNIQYKKCLKNENCSIMRMNRNRCQQCRFKKCLSVGMSR [G10D],-0.433 ± 0.22
14,CKVCGDVASGFNYGVHACEGCKGFFRRSIQQNIQYKKCLKNENCSIMRMNRNRCQQCRFKKCLSVGMSR [H12N],-0.161 ± 0.17
15,CKVCGDVASGFEYGVHACEGCKGFFRRSIQQNIQYKKCLKNENCSIMRMNRNRCQQCRFKKCLSVGMSR [H12E],-0.587 ± 0.2
16,CKVCGDVASGFAYGVHACEGCKGFFRRSIQQNIQYKKCLKNENCSIMRMNRNRCQQCRFKKCLSVGMSR [H12A],-0.28 ± 0.081
17,CKVCGDVASGFQYGVHACEGCKGFFRRSIQQNIQYKKCLKNENCSIMRMNRNRCQQCRFKKCLSVGMSR [H12Q],-0.568 ± 0.2
18,CKVCGDVASGFRYGVHACEGCKGFFRRSIQQNIQYKKCLKNENCSIMRMNRNRCQQCRFKKCLSVGMSR [H12R],-0.732 ± 0.13
19,CKVCGDVASGFMYGVHACEGCKGFFRRSIQQNIQYKKCLKNENCSIMRMNRNRCQQCRFKKCLSVGMSR [H12M],-0.936 ± 0.28
